Here are results for one substance from patent publication US20240052048A1.

The assay deals with monkey BCMA on BCMA-CHO cells (cynomolgus monkey). The experiment in a line: flow cytometry (MFI) on CHO cells expressing monkey BCMA; EC50 table in the figure; fit value for a flat control curve.
monkey BCMA on BCMA-CHO cells (cynomolgus monkey), sequence (chain, as listed by the source): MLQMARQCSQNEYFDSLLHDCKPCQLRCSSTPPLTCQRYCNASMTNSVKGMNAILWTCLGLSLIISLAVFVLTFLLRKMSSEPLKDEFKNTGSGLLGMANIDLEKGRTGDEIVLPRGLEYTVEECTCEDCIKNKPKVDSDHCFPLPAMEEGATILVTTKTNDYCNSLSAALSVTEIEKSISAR

As for Irrelevant antibody, the EC50 came out at 0.357 µg/mL.
